# Results reported in patent US20250228955A1 (ALBERT EINSTEIN COLLEGE OF MEDICINE, published 2025).
# Read-outs that look alike come from different tables or passages of the source.
# Assays:
# [1] = molecular target: T1, human epidermal growth factor receptor (EGFR) (human, UniProt P00533 25-645)
# [2] = molecular target: T2, recombinant Strep-tagged SARS-CoV-2 trimeric spike (SARS-CoV-2, UniProt P0DTC2 14-1208)
# [3] = molecular target: T2, recombinant Strep-tagged SARS-CoV-2 …; remark: listed apart in the source
# [4] = molecular target: T2, recombinant Strep-tagged SARS-CoV-2 …; remark: listed apart in the source
# [5] = molecular target: T1, human epidermal growth factor receptor …; experiment: biolayer interferometry
# [6] = molecular target: T2, recombinant Strep-tagged SARS-CoV-2 …; remark: listed apart in the source
binder,measurement,setting,value
"ODIN-8 (VHH-72.58 with UL-CDR3 from 60H05 bovine IgG in FR2 loop) (bispecific antibody, V domains shown) VH: MGWFRQNKLKSCPDGYTSGVECRFRGYTCANDGCWRVCSFTTCSGWMPASDTYRREFVATISWSGGSTYYTDSVKGRFTISRDNAKNTVYLQMNSLKPDDTAVYYCAAAGLGTVVSEWDYDYDYWGQGTQVTVSS",Kd,[1],11.4 nM
same,koff,[1],0.00103 s⁻¹
same,kon,[1],90500 M⁻¹ s⁻¹
same,Kd,[2],76.4 nM
same,koff,[2],0.012 s⁻¹
same,kon,[2],158000 M⁻¹ s⁻¹
"ODIN-1-A56R fusion (ODIN-1 fused to vaccinia virus (VACV) A56R for rVACV display) (bispecific antibody, V domains shown) VH: MGWFRQTNKKECPEDYTYNPRCPQQYGWSDCDCMGDRFGGYCRQDGCSNYIHRSTREFVATISWSGGSTYYTDSVKGRFTISRDNAKNTVYLQMNSLKPDDTAVYYCAAAGLGTVVSEWDYDYDYWGQGTQVTVSS",EC50 (read off the curve),[3],~0.06 µg/mL
same,EC50 (read off the curve),[4],~0.2 µg/mL
"VHH-72 (SARS-CoV-2 spike VHH, soluble recombinant) (VHH, also called parental VHH-72; VHH 72.58) VHH: QVQLQESGGGLVQAGGSLRLSCAASGRTFSEYAMGWFRQAPGKEREFVATISWSGGSTYYTDSVKGRFTISRDNAKNTVYLQMNSLKPDDTAVYYCAAAGLGTVVSEWDYDYDYWGQGTQVTVSS",binding result,[5],no binding
same,Kd,[6],460 nM
same,koff,[6],0.0364 s⁻¹
same,kon,[6],79200 M⁻¹ s⁻¹
VHH-72-A56R fusion (VHH-72 fused to vaccinia virus (VACV) A56R for rVACV display) (VHH) VHH: QVQLQESGGGLVQAGGSLRLSCAASGRTFSEYAMGWFRQAPGKEREFVATISWSGGSTYYTDSVKGRFTISRDNAKNTVYLQMNSLKPDDTAVYYCAAAGLGTVVSEWDYDYDYWGQGTQVTVSS,EC50 (read off the curve),[3],~0.07 µg/mL
